{"source": "patent US20160185857A1", "about": "(SUPPREMOL, published 2016)", "binders": {"B1": {"name": "monoclonal antibody 8A6 (rat IgG2a) (antibody, V domains shown)", "VH": "EVQLVESGGDLVQPGRSLRLSCAASGFTFSDYYMAWVRQAPKKGLEWVASISSDGSNTYYGDSVKGRFTISRDNTRSNLYLQMNSLRSEDTATYYCARPGDYWGQGVMVTVSS", "VL": "NIVMTQSPTSMFISVGDRVTMNCKASQNVGTYVDWFQQKTGQSPTLLIFGASNRYTGVPDRFTGSGSGTDFTLSISNMQAEDLAVYYCLQYNYHPYTFGPGTTLELKR", "notes": "Rat IgG2a from hybridoma supernatant; also called mAb 8A6; rat antibody 8A6"}, "B2": {"name": "chGB3_N297A (chimeric GB3, prior art antibody of WO 2005/051999, N297A format) (antibody, V domains shown)", "VH": "VQLQQSGPELVKPGASVKISCKASGYTFTDYYIYWVKQWPGQGLEWIGWIFPGTGNTYYNENFKDKATLTIDRSSSTAYMLLGSLTSEDSAVYFCYGPFAYWGQ", "VL": "RIQLTQSPSSLSASLGERVSLTCRASQEISGYLSWLQQKPDGTIKRLIYATSALDSGVPKRFSGSGSGSNYSLTISSLESEDFADYYCLQYANYPYTFGGGTKL"}, "B3": {"name": "ch8A6_N297A (chimeric 8A6, rat variable regions, human IgG1 N297A constant region, human kappa) (antibody)", "heavy": "not shown", "light": "NIVMTQSPTSMFISVGDRVTMNCKASQNVGTYVDWFQQKTGQSPTLLIFGASNRYTGVPDRFTGSGSGTDFTLSISNMQAEDLAVYYCLQYNYHPYTFGPGTTLELKRTVAAPSVFIFPPSDEQLKSGTASVVCLLNNFYPREAKVQWKVDNALQSGNSQESVTEQDSKDSTYSLSSTLTLSKADYEKHKVYACEVTHQGLSSPVTKSFNRGEC", "notes": "also called chimeric 8A6_N297A"}}, "key": {"[1]": {"biological_target": "T1, recombinant soluble human FcγRIIB (human, UniProt P31994 43-217)", "T1 construct": "also called sFcγRIIB", "T1 sequence": "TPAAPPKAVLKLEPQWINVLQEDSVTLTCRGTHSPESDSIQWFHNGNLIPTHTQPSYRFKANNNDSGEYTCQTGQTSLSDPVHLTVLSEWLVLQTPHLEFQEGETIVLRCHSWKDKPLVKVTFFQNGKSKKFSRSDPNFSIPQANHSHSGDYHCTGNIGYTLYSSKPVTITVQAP", "assay": "ELISA, sFcγRIIB coated on plates, hybridoma supernatant"}, "[2]": {"biological_target": "T2, native FcγRIIB, membrane-bound, endogenously expressed on human cells (Raji, Daudi, PBMC) (human, UniProt P31994 43-310)", "T2 sequence (looked up)": "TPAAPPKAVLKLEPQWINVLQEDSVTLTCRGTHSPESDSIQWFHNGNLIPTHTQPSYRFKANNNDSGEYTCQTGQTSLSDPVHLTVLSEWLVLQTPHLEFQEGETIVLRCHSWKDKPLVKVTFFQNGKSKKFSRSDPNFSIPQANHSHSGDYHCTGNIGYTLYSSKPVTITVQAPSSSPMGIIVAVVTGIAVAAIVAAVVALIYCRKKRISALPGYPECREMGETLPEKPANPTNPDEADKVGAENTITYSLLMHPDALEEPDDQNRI", "assay": "cell-based or functional assay"}, "[3]": {"biological_target": "T3, native FcγRIIA expressed on K562 cells (human, UniProt P12318 34-317)", "T3 construct": "whole, on cells", "T3 sequence (looked up)": "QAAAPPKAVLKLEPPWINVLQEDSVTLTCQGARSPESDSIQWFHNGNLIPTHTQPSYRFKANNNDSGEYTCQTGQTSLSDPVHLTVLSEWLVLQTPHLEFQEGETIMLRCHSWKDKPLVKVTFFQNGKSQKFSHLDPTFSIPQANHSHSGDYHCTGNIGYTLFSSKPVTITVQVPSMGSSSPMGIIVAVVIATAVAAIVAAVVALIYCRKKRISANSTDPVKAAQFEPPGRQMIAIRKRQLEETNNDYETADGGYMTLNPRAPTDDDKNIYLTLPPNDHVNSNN", "assay": "flow cytometry on K562 cells", "method": "FIG. 5: Binding of 15 μg/ml antibody (hu8A6_VH+hu8A6_VL and ch8A6_N297A) to native FcγRIIA expressed on K562 cells.\nRaji and K562 cells were incubated with increasing concentrations of humanized antibodies and the chimeric antibody as control. Raji cells were used to test binding on FcγRIIB (FIG. 4), K562 cells to analyze unspecific binding to FcγRIIA (FIG. 5). Cell bound antibodies were detected with PE-conjugated secondary antibody."}}, "data": [{"binder": "B1", "values": [{"measurement": "binding result", "setting": "[1]", "value": "binds"}]}, {"binder": "B2", "values": [{"measurement": "maximum fold phospho-signal of the FcγRIIB ITIM against untreated cells, densitometry of Western blot, Daudi cells", "setting": "[2]", "value": 2.8, "unit": "fold"}]}, {"binder": "B3", "values": [{"measurement": "binding result", "setting": "[3]", "value": "no binding (tested: 15 µg/ml)"}]}]}
